Experimental data from the DeepSol protein solubility set.

Test: soluble on expression in E. coli; label from the status in PepcDB or PDB records

Q: With “MGSDKIHHHHHHMPYKTLKTIDYEAHHDSKTVGTEYERRIHNYGIFKSGLYPFLIDHQELSQDRRELFITPLREIAIACERIEYNSAELKSKLKELPPIAEELYLKKSLINEITTSNRLSGIAVRRTEVKAALDSINKDNQEQVRFAPMAKMYNKILEDDFQRIESFVDLRKVYNQLLFGLIEKEQMPDGAFFRNRPVSIKNDQQKIIFQLPGNENDLEQRLSNWLKFISNKNIPFMIKGLLAHGYFENIHPFYDGNGRTSRYILSLYLARKLDLVTGLNVAQAIYENRESYEKALLALGDQGNFAEGSFFINDSLSMIENRQRKIIEDLDVNIKQLSRTNKKIQQIYQINSPEYFVLNLLLQSKIFTDNQADGLLDREIVEISENSKHSKRAINLAIKSLEQKKQITTLKKNPFQHSIDIN” as the sequence, how does the “soluble on expression in E. coli” value read?
A: not soluble

Q: For “MGSDKIHHHHHHMQDCDVRIFYIFKSLYDSGSATFVSQQHSVSPSKVSRYIAEMREVYNDSLFIRRKTHFVPTKKAREIYPKICEIIELIEGLSANRHELEVKKECVIAVPATLCVGLPEHLNRVIKQEGLDISLKVMSSHREICTKVINGEICIAITNRACTQTMDCNPKHSNLLHVEPISVGEHVYVVSAATGAIWQEKISLDNIAKYPFVVTQVSGFNDEKDPFEVYCEQRGLALNVFLKTQNLASMIEALMSENTISFIGPNSAAAFIAKVPSLRVEKLENCEYQRLHEAMHKPTYSMIYLKRNIDVIPPLIKSEVLRFISDSVCDF”, which “soluble on expression in E. coli” value is on record?
A: not soluble

Q: For “MGSDKIHHHHHHMQDLLSQDEIDALLHGVDDGDIDTYEETDDTGVKNYDLASQDRIVRGRMPTLEMINERFARYTRISLFNLLRRNADVSTGGVQIMKFGEYIHTLYVPTSLNLCKVRPLRGTSLFVLDAKLVFKLVDNFFGGEGRHAKIEGREFTPTETRIVQMVLNQVFHDMKEAWHAVLQVEFEYLSSEVNPAMANIVSPSEVVVVSTFHIELDGGGGELHFALPYSMIEPIRDVLDAGVQSDIDDVDERWVNALQEDIKEVNVPINTTVCRRRISLRDIARMKAGDVIPVEIPEHLTVTANGIPIYKATLGTRDGKLALRIHDRAKLPKVKKQLKVGRNG”, which “soluble on expression in E. coli” value is on record?
A: not soluble

Q: With “MGSDKIHHHHHHMQDLNDLSLFAQVVEHGSFSAASRATGIPKSRLSRRIAQLERDLGVQLLRRTTRQVRVTPLGESYYERCRAMLKEAEAAHEVIEQARDQPGGTLRVSCPVAIAQILLAPAIGHFMRANPAVRIELEATNRRVDVIGEGYDLSLRVRDVLEDSSLAVRTFGESQLMLVASPGLLDSIGRPRTPQALDGMPGVGQKPHDGKHVWVLGCKSGETIQIAYDPRLVTDEFSLLREAAIAGIGVAMLPRMYCRDAIDAGELELLLPQWEMPVGTLHAVFPSRKGVTPAVRRFLDFLSEILPENARKVGMHEPRQPAMHRAV” as the sequence, how does the “soluble on expression in E. coli” value read?
A: not soluble

Q: Which “soluble on expression in E. coli” value does the source give for “MGSDKIHHHHHHMQEIVDQLAATIRAAAASNVPLRIRSGGTKDFYGQQDKGRDVAPEGILDPTAFAGIVDYEPTELVVTARTGTPLAQLETELNGRGQMLAFEPPHFGAGATLGGCIAAGLSGPRRASAGAVRDFVLGVRMLDGRGDDLSFGGRVMKNVAGYDIPRLMAGSLGTLGLLLEVSLKVLPLPAEERTLRLSMNEAVAIETMNRWAGKPLPVSATCFCEGELTVRLSGATSAVRAARAVLGGEEIVENSSFWKSIREQVHPFFRSGKQLWRLSIKSTTAPLSLPGKQLIEWGGAVRWLSVDAEMDNDAVETLVRKTAKEAGGHATLFRSRTPAAAVFHPLPPAMMNIHRQLKEKFDPMRIFNRGRLYPEL” here?
A: not soluble

Q: With “MGSDKIHHHHHHMQEQINLSEWRERARSFEQSANKVVLGLERQVRALTIAIFSRGHVLLEGDVGVGKTTLLKAASRLLGGAYQRIEGAIDLMPGDFLYHAYIDQNGQPAVAPGPLLRHEENLAVFFFNEINRARPQAHSLLLRLMAERSVNAFNRDYAFPHLTVFADRNGLEREETFELPAAARDRFFMEVSVTAPEDKELQRDLMFSTRFHDADALIETLEPGLVPYDKLNAVSAAIQESVRSELALQDYAVNIWQALRHPERIGIEIEDVDISRLVAGGASPRGMAMLMRAARTRAWLEGRDYLTPDDIRAVFPETVGHRVFFTPAYELRRDEIAPALLSGVLNKIPAP” as the sequence, how does the “soluble on expression in E. coli” value read?
A: not soluble

Q: With “MGSDKIHHHHHHMQFDNLLSRADDGTLQVLLGNAAVRLIKLLDPSLVTPSRLREILMELHTPASLLLTKDSRAMLLDLLRPEQAKILATIMQVPLTGDIFETLKKTSIRHGSNRERALFDFFELELPQPEDSVQSSSLELAVSNYPLFAHQRIAARKVKNYFKQEPRRVLLHMPTGSGKTRTAMNIIADHLRSVEPTIVVWLAYSEELCEQAATEFQKAWQCLGDRQVSLYRFWGEHEIDVDKLEDGIVVAGLSKVYNRTKQSIQFINRLGKVSSLVIIDEAHQAIAETYKLVLDALVVPYENTALLGLTATPGRTWSDINVDTELSEFFAKNKVTLEVSGYSNPVDYLISEEYLAKPNFRSLFYKNGLKLTQKDLERIQQELEIPQHILEQLADDEQRNLSIIIEVEELAKRHQRILIFGISIKHSKLLATVLRARGLQANVVTGDTPLLERTRLINSFKDDSDETKIICNYGVLTTGFDAPRTSAAVIARPTKSLVLYSQMVGRAIRGVKAGGNVTAEIVTVVDSALRGFGSLEEAFSNWEDVWHKEKI” as the sequence, how does the “soluble on expression in E. coli” value read?
A: not soluble

Q: For “MGSDKIHHHHHHMQFDPPLQPAILLKRYKRFLADVVTPDGRELTLHCPNTGAMTGCAAPGDTVWYSTSDNAKRKYAHTWELTETQQGAVICVNTLRANSLAKEAISAGIIPELSGYNQLKSEVKYGEENSRIDIMLQADDRQNCYIEVKSVTLAEKEYGYFPDAVTTRGQKHLRELMAVAANGDRAVILFAVLHSAIDRFSPAHHIDARYAQLLTEAQDKGVEILAWKAELSTTRMTLNKPIAVVLNPGK”, which “soluble on expression in E. coli” value is on record?
A: not soluble

Q: For “MGSDKIHHHHHHMQGSAMLVHPQYDSNCPKTSVEVSEGFGGWFARICEDDQETFHQFRRERDAIAFADTQRMRLGLPCPPLERTASSGHKAIRKINQIADVLRTRGLGRFLQLSTLSLSEPIRSQRLRYRVASDARQALSKIKAASRHRGLFIDCGSNIGQAYKFFSRYYTPDYYDYVLVEPNKNCLEHLHSLRSENVAIEVVAKAASVKDGYAEFLGPPGRSDLTYEGCSIVPSHNGGLYPSQRFTPELVETFSLSQMIQAKRGLYEVIVLKLDVEGAEYEILDDLIRSGLHRDLHATYVEFHSLYMRNSEGRKTAVVERKIVDEFQQAGTHISRWI”, which “soluble on expression in E. coli” value is on record?
A: not soluble

Q: With “MGSDKIHHHHHHMQLKRMGYAQTKIRQGPNHRDGEQVTFLDVKQFFGLGHVRVGSWVSSEESLIAANMVFDALADLALVLGLPPKVMGLRERLNLAFGHGGQQGVMAHYSPSERTLALAKHAGAGAVAHEFWHAFDHHLSDTAMDIGRSQKARFASELWLNDVPLLCHPLNDRLEALFQSVLLSGDGEHPSDYVRRAIQLDKTYGRLYFSHPSELMARAFEAAIESEGDFEQVDTDSGEIHLLPLINPYLVTGTLEDIKTENKGELLPKFGSWGAMPQGAFPTPIHRQAIMKAMAGYFRPLGRALAKTLS” as the sequence, how does the “soluble on expression in E. coli” value read?
A: not soluble

Q: With “MGSDKIHHHHHHMQLPNLQSATLLRRYKRFLADVELNNGEILTLHCANTGAMTGCGEKGDTVWFSTSDSKTRKYPHSWELTQLKNGQTVCINTHRSNQLTLEALQNKIITELAEYDEILPEVKYGVENSRIDFLLKGKNLPDCYVEVKSVTFVKNHLGLFPDAVTTRGQKHLRELIAMKKRGHRAVVFFAGLHDGFNRFTVAKSIDPDYAELLQQAVKEGVEVYSYAVKFDFSHQKPTALYLTNLVNYLE” as the sequence, how does the “soluble on expression in E. coli” value read?
A: not soluble

Q: Which “soluble on expression in E. coli” value does the source give for “MGSDKIHHHHHHMQLYYAPNTISVAVAIALEEAGLAYEAVKIDFAEKQQTTRAYHQINPKGRVPALAVEGGILTETGALLEFIADLAPDADLRPSDPVLQARMREVMFYLASTMHVNHAHKMRGSRWASNPASFKDMARKVPETMAASCEYICNHGLRGPFVLGDTPCLADFYLYVVCTWLEGDGVKLAGFPKLRAFIEAMDARDSVKTVRAKDML” here?
A: not soluble

Q: Which “soluble on expression in E. coli” value does the source give for “MGSDKIHHHHHHMQNHVISLASAAERRAHITDTFGVRGIPFQFFDALMPSERLEQAMAELVPGLSAHPYLSGVEKACFMSHAVLWKQALDEGLPYIAVFEDDVLLGEGAEKFLAEDAWLQERFDPDSAFIVRLETMFMHVLTSPSGVADYCGRAFPLLESEHWGTAGYIISRKAMWFFLDRFAALPSEGLHPVDWMMFGNPDDRERMPVCQLNPALCAQELHYAKFHDQNSALGSLIEHDRCLNSKQQRRDSPANTFKHRLIRALTKISREREKRRQRREQLIGKIIVPFQ” here?
A: not soluble

Q: With “MGSDKIHHHHHHMQNPFTLTFGRSPLESVDRPVQINEIIENFTADTINQQMFIITGVRGSGKTVMMTEISHRLRENDDWVVIELNPATELLPAMLSKLNSDNICAGLIKSAKLDLSFFGFGVSIEGTQPITDAETAIIKILERLKKSGKRLLITIDEMTNSEYMKVFAGAFQIFVRQELPVFLLGTGLYENIEELQNEKSLTFLYRAPKIQLKPLNNAAIINKYKTIFNISPEKAAQMAGLTKGYPFAFQVLGYLTWNNGGDYNGILGEYEQYLSEFVYDKIWSELSQKDRMVAKGIADVQSGKIKEIRDAIGMETNEFNPYRKRLIKKGIVSGEIRGYVYFTLPLFEEYVIENY” as the sequence, how does the “soluble on expression in E. coli” value read?
A: not soluble

Q: With “MGSDKIHHHHHHMQQEQRILFKNDTGDYAAVAAGEESVLQAGLRQSVPLNYHCASGSCGSCKARLIQGALKVHTGTDFIQVSHTADQVCEYPEVHLCQSHAVSDCVFEALYDKNVPPDLVTPKHYAASLSDVRPLGSGLYRLLVDFDDSIRFLPGQYVMLATEAGGRARAYSVANFAQDSRQLEFILSCNPNGAMSPQLCDINNIGMQLQGYGPLGKAYIRPSKDKEIVMLVGGSGVSVALSTLEWAISSHYIDDRHLTIFWGVRDTSPIDLIGVLNRYAAVHSNLRVAVCSDISPSVQDRVRFPHIEFFTGYPADHIVNDASISWEGKEVYISGPPPMVDHTVRQLMINTEIDALDIKCDSFV” as the sequence, how does the “soluble on expression in E. coli” value read?
A: not soluble

Q: With “MGSDKIHHHHHHMQREKVDVLVIGAGPAGTVAASLVNKSGFKVKIVEKQKFPRFVIGESLLPRCMEHLDEAGFLDAVKAQGFQQKFGAKFVRGKEIADFNFSDQFSNGWNWTWQVPRGNFDKTLADEAARQGVDVEYEVGVTDIKFFGTDSVTTIEDINGNKREIEARFIIDASGYGRVIPRMFGLDKPSGFESRRTLFTHIKDVKRPVAAEMEGNRITAVVHKPKVWIWVIPFSNGNTSVGFVGEPSYFYYYTGTPEERMRAMIANEGHIAERFKSEEFLFEPRTIEGYAISASKLYGDGFVLTGNATEFLDPIFSSGATFAMESGSKGGKLAVQFLKGEEVNWEKDFVEHMMQGIDTFRSFVTGWYDGTLHAVFFAKNPDPDHKRMICSVLAGYVWDKNNPFVKKHNTILKTLAKVIQMGEEA” as the sequence, how does the “soluble on expression in E. coli” value read?
A: not soluble

Q: Which “soluble on expression in E. coli” value does the source give for “MGSDKIHHHHHHMQSRMHPRYYLSLEIFEREQKKIFRKAWLFAGLKTLLSEHNAFITRRIAGIPIVIQNFHGELRAFENVCLHRNALLQTEAVGKRPLVCAYHAWRYDAEGRVDHIPECDAVYRFSAEEKQGLKLRRFALHAVGNVLFINLDTDPLPFEEQFTPAFIDLLESSSNTYDTEVMVTTWHGKFNWKLAYENLRDANHPRFVHPKSLAKTVKFTPTVDEALFRESGLQLTDTSPSALRREMRRFSHAGADAPIPDLQHFGWHELVERWGDQDSYYNWLAFPNLHIASANGGFSFTLEHHIPIAPDRTDLEIYWFTARKKQAYAFSHQVLLAQMHGSKLVVGEDVEIMEQVQAALHADAPLPNQGAYESSNRLVERWYTTLMDGDHDI” here?
A: not soluble

Q: With “MGSDKIHHHHHHMQTHQELYLPRMGCGTWAWGNQLLWGYNESMDEQLQAVFNLCVSNGVTLFDTGDSYGTGRLNGRSELLLGQFAQEYQGVNQENICIATKLAAYPWRWTRQSMINACKSSAQRLGRNVDLVQMHWSTANYAPWQESGLLDGLADLYEQGLVKGVGLSNYGTKRLQRVHQKFAERGVPIKTLQVQYSLLSTYPVTELGLKDVCDQLGIKLIAYSPLALGILTGKYSEKGPFPRGVRGLLFRQLLPGVRSLLQCLQDVAQSRNKTMSQVALNWCIAKGTIPIPGAKSVKQAQENIGALGWQLDSGEIAELDKAAASSDKKMVQNIFQTK” as the sequence, how does the “soluble on expression in E. coli” value read?
A: not soluble
